The source of these data is patent US20070020688A1, “Measurement method using biosensor” (FUJI PHOTO FILM CO., LTD., priority 2005, published 2007).

The target of series [1] is T1, trypsin (Bos taurus, UniProt P00760).
T1 construct: purchased Worthington
T1 sequence (P00760 24-246): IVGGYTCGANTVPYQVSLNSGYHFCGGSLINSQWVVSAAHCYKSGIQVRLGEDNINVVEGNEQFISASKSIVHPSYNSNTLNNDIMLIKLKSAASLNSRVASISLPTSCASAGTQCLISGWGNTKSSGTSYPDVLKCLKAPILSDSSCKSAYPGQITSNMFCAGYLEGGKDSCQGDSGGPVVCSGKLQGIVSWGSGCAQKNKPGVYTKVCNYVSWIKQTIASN
The series can be described thus: Compound binding amount on trypsin-immobilized hydrogel-coated chip by surface plasmon resonance. The following applies: for Compound binding amount (RU): compound 0.01 mM, 3 minutes. As for the experimental part:
Trypsin (manufactured by Worthington) was immobilized on the hydrogel-coated measurement chip produced in (2) above. Measurement was carried out using the surface plasmon resonance measurement device described in (1) above.
A mixed solution of 1-ethyl-2,3-dimethylaminopropylcarbodiimide (400 mM) and N-hydroxysuccinimide (100 mM) was added to a hydrogel-coated chip, followed by leaving at rest for 20 minutes. Thereafter, the resultant product was washed with a 10 mM phosphate buffer. Subsequently, the aforementioned trypsin solution was added thereto, followed by leaving at rest for the period of time shown in Table 1. Thereafter, the resultant product was subjected to a primary washing with a 10 mM phosphate buffer, and then subjected to a secondary washing with the washing solution shown in Table 1. Thereafter, the resultant product was further washed with a 10 mM phosphate buffer. It is to be noted that it has been known that if such a secondary washing is carried out with 10 mM NaOH, non-specifically adsorbed proteins are washed out, and a baseline drift thereby becomes stable during interaction measurement.
By the aforementioned operations, trypsin was immobilized on the surface of the measurement chip via a covalent bond. The amount by which resonance signals (RU value) obtained before the addition of trypsin and after washing had changed was defined as the immobilized amount of trypsin (RU value).
The measurement chip was washed with a 10 mM phosphate buffer, and it was then equipped in the surface plasmon resonance device of the present example. Thereafter, leupeptin (0.01 mM; phosphate buffer pH 7.4), the following kinase inhibitor, and an amphipathic compound (0.01 mM; phosphate buffer pH 7.4) were added thereto, followed by leaving at rest for 3 minutes. The amount by which resonance signals (RU value) had changed was defined as the binding amount of the compound.

In series [2] the target is T1, trypsin. The series can be described thus: Enzyme activity of immobilized trypsin, fluorescence of decomposed Bz-Arg-MCA substrate. It counts as biochemical. The following applies: for Enzyme activity (fluorescence intensity): 0.1 mM Bz-Arg-MCA, 120 minutes. As for the experimental part:
Using the chip on which trypsin had been immobilized as described in (1) above, the enzyme activity of trypsin was measured. […] Specifically, a substrate specific to trypsin (benzoyl-L-arginine-4-methylcoumarin-7-amide (hereinafter referred to as Bz-Arg-MCA); Peptide Institute, Inc.) was allowed to react with trypsin, and fluorescence in the decomposed product was measured.
The 10 mM phosphate buffer contained in the measurement chip was removed, and 0.1 mM Bz-Arg-MCA was then added thereto. The reaction was then carried out for 120 minutes.
Fluorescence measurement was carried out regarding fluorescence for each of the aforementioned reaction times, using the BMGLabTechnologies FLUOstar measurement device (excitation: 380 nm; and emission: 460 nm).

In the case of `CC(=O)N[C@@H](CC(C)C)C(=O)N[C@@H](CC(C)C)C(=O)N[C@H](C=O)CCCNC(=N)N` [Leupeptin, leupeptin], the “Compound binding amount (RU)” value on trypsin [1] (Experiment No. 1: trypsin immobilized in phosphate buffer (pH 7.4), 10 mg/ml, 1 hr, secondary washing phosphate buffer (pH 7.4)) came to 25 RU; at trypsin [1] (Experiment No. 2: trypsin immobilized in phosphate buffer (pH 7.4), 2 mg/ml, 1 hr, secondary washing phosphate buffer (pH 7.4)), 19 RU; on trypsin [1] (Experiment No. 3: trypsin immobilized in phosphate buffer (pH 7.4), 2 mg/ml, 1 hr, secondary washing 10 mM NaOH), 8 RU; on trypsin [1] (Experiment No. 4: trypsin immobilized in acetate buffer (pH 5.0), 0.1 mg/ml, 0.2 hr, secondary washing phosphate buffer (pH 7.4)) it was 16 RU. Besides, the “Binding to the surface, in words” value at trypsin [1] (surface of experiment No. 2) is given as “binds to the surface”.

As for Trypsin, the “Activity value (enzyme activity/immobilized amount)” value with trypsin [2] (Experiment No. 1) was found to be 0.055; in the series with trypsin [2] (Experiment No. 2) it was 0.238; in the series with trypsin [2] (Experiment No. 3), 0.160; with trypsin [2] (Experiment No. 4) it was 0.008. In addition, the “Enzyme activity (fluorescence intensity)” value is recorded as 230 with trypsin [2] (Experiment No. 1: phosphate buffer (pH 7.4), 10 mg/ml, 1 hr, washing phosphate buffer (pH 7.4)); 615 with trypsin [2] (Experiment No. 2: phosphate buffer (pH 7.4), 2 mg/ml, 1 hr, washing phosphate buffer (pH 7.4)); 370 with trypsin [2] (Experiment No. 3: phosphate buffer (pH 7.4), 2 mg/ml, 1 hr, washing 10 mM NaOH); 40 with trypsin [2] (Experiment No. 4: acetate buffer (pH 5.0), 0.1 mg/ml, 0.2 hr, washing phosphate buffer (pH 7.4)).
